Results taken from patent publication US12534533B2, “Anti-chemokine like receptor 1 humanized antibodies and their therapeutic applications” (OSE IMMUNOTHERAPEUTICS, priority 2019, dated 2026).

Legend:
[1] = tested on: peritonitis induced by Zymosan A; assay: peritonitis model (Zymosan A); format: in vivo, mice; conditions: vs isotype control
Method: FIG. 7. Effect of an anti-CMKLR1 antibody on a mice peritonitis model. Preventive injection of anti-CMKLR1 was performed before Zymosan A injection (1 mg per mouse in 1 mL): RvE1 (1 μg per mouse) (●), 2G1 antibody (10 μg per mouse) (□) or isotype control antibody (x). A. PMN numbered during the first 50 hours after Zymosan A injection. B. Macrophages numbered during the first 50 hours after Zymosan A injection. C. Resolution index.
Common peritonitis is induced by intraperitoneal injection of Zymosan A® (1 mg per mouse in 1 mL). Preventive injection of anti-CMKLR1 was performed 5 minutes before Zymosan A injection: RvE1 (1 μg per mouse), 2G1 antibody (10 μg per mouse). Murine peritoneal polymorphonuclear neutrophil (PMN) and macrophages were collected at 2-4-8-16-24 and 48 h after Zymosan A injection and numbered by flow cytometry analysis to determinate the resolution index (Bannenberg et al., 2005).

[2] = target: T1, CMKLR1 receptor (CHO-K1 CMKLR1 cells) (Homo sapiens, UniProt Q99788); assay: competition assay, Chemerin-dependent beta-arrestin recruitment by CMKLR1 receptor; format: cell-based; conditions: antibody 1 μM to 1 nM, Chemerin 2 or 6 nM; FIG. 18B
T1 construct: host or cells: CHO-K1
T1 sequence (Q99788 1-373): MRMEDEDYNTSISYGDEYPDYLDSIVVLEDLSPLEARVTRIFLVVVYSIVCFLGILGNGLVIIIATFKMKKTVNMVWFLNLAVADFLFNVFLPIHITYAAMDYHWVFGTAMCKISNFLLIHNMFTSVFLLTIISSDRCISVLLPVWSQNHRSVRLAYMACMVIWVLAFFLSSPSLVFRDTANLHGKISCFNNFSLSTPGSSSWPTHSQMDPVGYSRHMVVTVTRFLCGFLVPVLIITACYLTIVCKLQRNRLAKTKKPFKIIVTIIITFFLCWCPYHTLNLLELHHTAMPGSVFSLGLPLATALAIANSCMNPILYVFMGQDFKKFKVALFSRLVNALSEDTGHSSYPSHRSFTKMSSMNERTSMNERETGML
Method: The day before the assay, CHO-K1 CMKLR1 cells (Discover'X ref 93-0313E2) were plated in pre-warmed cell reagent then plated in a 96-well plate at 100 μl/well of cells as (Discover'X ref 15-103) and incubated […] at 37° C., in a 5% CO2 humidified incubator. The anti-CMLKR1 antibody was diluted (22× in 7-point series of 3-fold dilutions from 1 μM to 1 nM) and cells were incubated 30 min at 37° C. with the antibody. […] The luminescence was measured after Working Detection Solution addition to the cells with a plate reader with 0.5 s integration.

[3] = tested on: CCR7 expression at the surface of pro-inflammatory macrophages M1; assay: CCR7 expression on M1 macrophages with coated antibodies; format: cell-based, human; conditions: antibody coated on plate, 48 h, flow cytometry; vs isotype control; FIG. 25, FIG. 35
Method: FIG. 25. Inhibition of CCR7 expression on M1 macrophages cells in vitro with anti-ChemR23 antibodies coated. 2G1 and all humanized 2G1 variants (HALA, HCLC, HCLD, HDLC and HDLD) were immobilized on plate. Isotype control were added as controls. Two isotypes which prevent FcRγ binding, i.e., 2G1-N297A (2G1 wt mutated in N297A to reduce FcγR binding), and 2G4 (wt with isotype IgG4mutated in S228P to stabilise hinge region) were also added. Pro-inflammatory macrophages M1 were added on coated plate for 48 h, and CCR7 expression at the surface of the macrophages was measured by flow cytometry.
FIG. 35—Inhibition of CCR7 expression on M1 macrophages cells in vitro with anti-ChemR23 antibody coated. The humanized 2G1 variant HEF-LD-T52S was immobilized on plate. Isotype control were added as controls. Pro-inflammatory macrophages M1 were added on coated plate, and CCR7 expression at the surface of the macrophages was measured by flow cytometry.
MATERIAL AND METHODS. […]
RESULTS. […] Pro-inflammatory macrophages M1 were added on coated plate for 48 h, and CCR7 expression at the surface of the macrophages was measured by flow cytometry.
The humanized 2G1 variant HEF-LD-T52S was immobilized on plate. […] Pro-inflammatory macrophages M1 were added on coated plate for 48 h, and CCR7 expression at the surface of the macrophages was measured by flow cytometry. […]

[4] = tested on: Caspase-3 in PMN from healthy volunteers; assay: Caspase-3 expression in PMN by Western Blot; format: cell-based, human; conditions: coated Ab at 10 μg/mL; 4 h, 6 h, 11 h; FIG. 26B
Method: Neutrophils were isolated from blood of healthy volunteers and cultured for 24 h (Mortality analysis), or 4 h, 6 h, 11 h (Caspase-3 assay), or 5 h (ROS assay) on coated Iso ctrl (cross), chimeric anti-ChemR23 2G1 (square) or different humanized versions of the 2G1 (diamonds). Mortality of PMN was analyzed by incubating PMN with specific markers of the mortality and viability and then counted by picture analysis.
PMN from healthy volunteers were incubated in culture medium with coated Ab at 10 μg/mL for different times and collected for Caspase-3 staining analyzed by Western Blot. The intensity of Capase-3 expression was calculated on WB.

B1: 2G1: parental chimeric anti-CMKLR1 antibody: heavy chain variable domain SEQ ID No. 37, light chain variable domain SEQ ID No. 49 (antibody, V domains shown)
VH: EVQLVASGGGLVQPGGSLKLSCAASGFTFSSYGMSWVRQTPDRRLELVATINRYGGSTYYPDSVKGRFTISRDNAKNTLYLQMSSLKSEDTAMYYCPRLIYYGNEGDSWGQGTTLTVSS
VL: QIVLTQSPAIMSASPGEKVTMTCSASSSVSFMHWYQQKSGTSPKRWIYDTTKLTSGVPARFSGSGSGTFYSLTISSMEAEDAATYYCQQWNSKPPLTFGPGTKLELKR
With B1 the PMNs number ([1]; first 50 hours after Zymosan A, FIG. 7A) was “slightly less”, the Macrophages number ([1]; first 50 hours after Zymosan A, FIG. 7B) was “slightly less” and the resolution index ([1]; FIG. 7C) was “better resolution index”. The “chemerin-dependent activation of the beta-arrestin” value [2] was “did not significantly modify chemerin-dependent activation of the beta-arrestin”, the “expression of CCR7 at the surface of pro-inflammatory macrophages (M1)” value [3] was “able to decrease expression of CCR7” and the caspase-3 cleavage [4] was “increases caspase-3 cleavage”.
